Measurements published in paper PMC7230020 (ACS chemical biology, 2020).
Read-outs that look alike come from different tables or passages of the source. Numbered stars: 1 amine (or outer) side, 2 acyl side, 3 side chain; on linkers, the order of the positions; unused ones are H or OH. Square brackets hold non-standard residues; d marks the D form. Acd = acridonylalanine, O=C([C@H](Cc1ccc2[nH]c3ccccc3c(=O)c2c1)N[*:1])[*:2]

T1: activated RecA (RecA*), E. coli RecA polymerised on ssDNA with ATPγS (E. coli, UniProt P0A7G6 1-353)
T1 sequence (looked up): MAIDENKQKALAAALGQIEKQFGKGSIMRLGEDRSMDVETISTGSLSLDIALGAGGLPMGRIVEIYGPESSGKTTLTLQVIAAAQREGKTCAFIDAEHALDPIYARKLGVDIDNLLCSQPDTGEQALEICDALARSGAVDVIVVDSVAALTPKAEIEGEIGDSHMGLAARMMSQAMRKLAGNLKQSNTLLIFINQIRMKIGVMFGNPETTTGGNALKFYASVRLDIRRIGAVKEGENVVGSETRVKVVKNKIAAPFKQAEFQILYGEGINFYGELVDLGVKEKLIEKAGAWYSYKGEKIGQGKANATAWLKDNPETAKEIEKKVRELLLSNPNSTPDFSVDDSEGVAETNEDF

B1: LexA-S119A, unlabeled catalytically inactive full-length LexA(1–202) (natural protein, E. coli, UniProt P0A7C2 1-202, looked up)
chain: MKALTARQQEVFDLIRDHISQTGMPPTRAEIAQRLGFRSPNAAEEHLKALARKGVIEIVSGASRGIRLLQEEEEGLPLVGRVAAGEPLLAQQHIEGHYQVDPSLFKPNADFLLRVSGMAMKDIGIMDGDLLAVHKTQDVRNGQVVVARIDDEVTVKRLKKQGNKVELLPENSEFKPIVVDLRQQSFTIEGLAVGVIRNGDWL
B2: LexA-S119A-Q161δ, full-length E. coli LexA with acridonylalanine (Acd) at position 161 (natural protein)
chain: MKALTARQQEVFDLIRDHISQTGMPPTRAEIAQRLGFRSPNAAEEHLKALARKGVIEIVSGASRGIRLLQEEEEGLPLVGRVAAGEPLLAQQHIEGHYQVDPSLFKPNADFLLRVSGMAMKDIGIMDGDLLAVHKTQDVRNGQVVVARIDDEVTVKRLKK[Acd]GNKVELLPENSEFKPIVVDLRQQSFTIEGLAVGVIRNGDWL

Assays:
Assay in all cases: fluorescence polarisation
[1] = target: T1, activated RecA (RecA*), E. coli RecA …
[2] = target: T1, activated RecA (RecA*), E. coli RecA …; remark: listed apart in the source
[3] = target: T1, activated RecA (RecA*), E. coli RecA …; remark: listed apart in the source

Binder	binding result [1]	Kd [2] [nM]	koff [2] [s⁻¹]	kon [2] [M⁻¹ s⁻¹]	koff [3] [s⁻¹]
B1	binds	–	–	–	–
B2	–	790	0.048	61000	0.093
